From patent US11434506B2, “Production of desaturated fatty alcohols and desaturated fatty alcohol acetates in yeast” (Danmarks Tekniske Universitet, priority 2016, dated 2022)

B1: D. melanogaster desaturase: Δ9 desaturase from Drosophila melanogaster Dmd9, SEQ ID NO: 10 (protein)
chain: MAPYSRIYHQDKSSRETGVLFEDDAQTVDSDLTTDRFQLKRAEKRRLPLVWRNIILFALVHLAALYGLHSIFTRAKLATTLFAAGLYIIGMLGVTAGAHRLWAHRTYKAKWPLRLLLVIFNTIAFQDAVYHWARDHRVHHKYSETDADPHNATRGFFFSHVGWLLCKKHPDIKEKGRGLDLSDLRADPILMFQRKHYYILMPLACFVLPTVIPMVYWNETLASSWFVATMFRWCFQLNMTWLVNSAAHKFGNRPYDKTMNPTQNAFVSAFTFGEGWHNYHHAFPWDYKTAEWGCYSLNITTAFIDLFAKIGWAYDLKTVAPDVIQRRVLRTGDGSHELWGWGDKDLTAEDARNVLLVDKSR
modifications: Drosophila melanogaster

What was measured:
fall armyworm = settings: applied alone, without other pheromone components; cited from earlier work
C14-CoA substrate = assay: activity and specificity of heterologous desaturases in yeast fed methyl myristate, FAMEs by GC-MS; type: cell-based, S. cerevisiae; settings: among the tested desaturases
[1] = production of (Z)-9-tetradecen-1-yl acetate by S. cerevisiae CEN.PK102-5B strains, GC-MS; settings: overexpression of desaturase, ST5290 versus ST4854
Method: The strains for production of pheromone were created on the basis of S. cerevisiae CEN.PK102-5B, which had active OLE1 and ELO1 genes.
Strains ST4854 and ST5290 were inoculated into 5 ml synthetic complete medium (lacking histidine, leucine, tryptophan supplemented with 20 mg/L uracil and 76 mg/L histidine) and cultivated in 12-ml glass tubes (Duran, Wertheim, Germany) with metal labocap lids (Lüdiswiss, Flawil, Switzerland) overnight at 30° C. with shaking at 250 rpm. The following day the overnight culture was centrifuged, the supernatant was discarded and the pellet was resuspended in 2 ml of mineral medium, which had the composition as described in (Jensen et al, 2014). The medium was supplemented with 76 mg/L histidine and 20 mg/L uracil. The cultures were incubated at 30° C. with shaking at 250 rpm for 48 hours.
1 mL sample of culture was transferred into a 4-mL glass vial and 10 μL of internal standard stock (1 μg/μl (Z)10-heptan-1-yl methyl ester in 100% ethanol) was added. The vials were covered with small pieces of aluminum foil and we used a needle to pierce small holes in the foil covers. The samples were vortexed and placed at −80° C. for storage until analysis. […] The concentration of (Z)-9-tetradecen-1-yl acetate was calculated based on internal standard.

Molecule | disruption of mating efficiency (fall armyworm) [%] | activity and specificity towards C14-CoA substrate (C14-CoA substrate) | increase of titer of Z9:14:OAc [1]
CCCC/C=C\CCCCCCCCOC(C)=O [(Z)19-14:OAc, (Z)9-tetradecen-1-yl acetate] | 86 | – | –
B1 | – | highest activity and specificity | more than 5 fold
